Substitutions are numbered along the chain they refer to. In names and notes the source's numbering stands.
Legend:
Test in all cases: purified protein
purified protein [1] = substrate: CC(=O)N[C@@H](CCC=O)C(=O)O; format: biochemical, Pseudomonas putida; settings: 1 mM NADP+, 100 mM potassium phosphate pH 7.6, room temperature, reverse (dehydrogenase) direction, promiscuous substrate, apparent KM, NAGSA in equilibrium with its hydrate
purified protein [2] = substrate: N[C@@H](CCC=O)C(=O)O; format: biochemical, Pseudomonas putida; settings: 1 mM NADP+, 100 mM potassium phosphate pH 7.6, room temperature, reverse (dehydrogenase) direction, apparent KM corrected to free GSA aldehyde/hydrate
purified protein [3] = substrate: CC(=O)N[C@@H](CCC=O)C(=O)O; format: biochemical, Escherichia coli; settings: 1 mM NADP+, 100 mM potassium phosphate pH 7.6, room temperature, reverse (dehydrogenase) direction, promiscuous substrate, apparent KM, NAGSA in equilibrium with its hydrate
purified protein [4] = substrate: N[C@@H](CCC=O)C(=O)O; format: biochemical, Escherichia coli; settings: 1 mM NADP+, 100 mM potassium phosphate pH 7.6, room temperature, reverse (dehydrogenase) direction, apparent KM corrected to free GSA aldehyde/hydrate
purified protein [5] = substrate: CC(=O)N[C@@H](CCC=O)C(=O)O; settings: 1 mM NADP+, 100 mM potassium phosphate pH 7.6, room temperature, reverse (dehydrogenase) direction, promiscuous substrate, apparent KM, NAGSA in equilibrium with its hydrate
purified protein [6] = substrate: N[C@@H](CCC=O)C(=O)O; settings: 1 mM NADP+, 100 mM potassium phosphate pH 7.6, room temperature, reverse (dehydrogenase) direction, apparent KM corrected to free GSA aldehyde/hydrate
purified protein [7] = substrate: N[C@@H](CCC=O)C(=O)O; format: biochemical, Methanosarcina acetivorans; settings: 1 mM NADP+, 100 mM potassium phosphate pH 7.6, room temperature, reverse (dehydrogenase) direction, apparent KM corrected to free GSA aldehyde/hydrate
purified protein [8] = substrate: CC(=O)N[C@@H](CCC=O)C(=O)O; format: biochemical, Bacillus subtilis; settings: 1 mM NADP+, 100 mM potassium phosphate pH 7.6, room temperature, reverse (dehydrogenase) direction, promiscuous substrate, apparent KM, NAGSA in equilibrium with its hydrate
purified protein [9] = substrate: N[C@@H](CCC=O)C(=O)O; format: biochemical, Bacillus subtilis; settings: 1 mM NADP+, 100 mM potassium phosphate pH 7.6, room temperature, reverse (dehydrogenase) direction, apparent KM corrected to free GSA aldehyde/hydrate
purified protein [10] = substrate: N[C@@H](CCC=O)C(=O)O; format: biochemical, Aliivibrio fischeri; settings: 1 mM NADP+, 100 mM potassium phosphate pH 7.6, room temperature, reverse (dehydrogenase) direction, apparent KM corrected to free GSA aldehyde/hydrate
purified protein [11] = substrate: CC(=O)N[C@@H](CCC=O)C(=O)O; format: biochemical, Aliivibrio fischeri; settings: 1 mM NADP+, 100 mM potassium phosphate pH 7.6, room temperature, reverse (dehydrogenase) direction, promiscuous substrate, apparent KM, NAGSA in equilibrium with its hydrate
purified protein [12] = substrate: CC(=O)N[C@@H](CCC=O)C(=O)O; format: biochemical, Saccharophagus degradans; settings: 1 mM NADP+, 100 mM potassium phosphate pH 7.6, room temperature, reverse (dehydrogenase) direction, promiscuous substrate, apparent KM, NAGSA in equilibrium with its hydrate
purified protein [13] = substrate: N[C@@H](CCC=O)C(=O)O; format: biochemical, Saccharophagus degradans; settings: 1 mM NADP+, 100 mM potassium phosphate pH 7.6, room temperature, reverse (dehydrogenase) direction, apparent KM corrected to free GSA aldehyde/hydrate

B1: Pseudomonas putida ProA (Pseudomonas putida KT2440) (protein)
chain: MTESVLDYMTRLGRAAREASRVIGRASTAQKNRALQAAADALDAARAELTAANELDLAAGRASGLEPALLDRLALTPARIDGMITGLRQVASLPDPVGAIRDMSYRPSGIQVGKMRTPLGVIGIIYESRPNVTIDAASLCLKSGNATILRGGSEAIHSNRAIATCIQRGLAEAGLPAAVVQVVETTDREAVGALISMPEFVDVIVPRGGRGLIERISRDARVPVIKHLDGICHIYVSQHADLDKAWNVAFNAKTYRYGICGAMETLLVDQQVAERFLPEMARRFVEKGVELRGCERTQAIISAKPATEADWHTEYLDAILSIRVVDGLNQAIEHINHYGSHHTDSIISEHQGEARQFMAEVDSASVMLNTPTCFADGFEYGLGAEIGISTDKLHARGPVGLEGLTCEKYVVIGDGQLRGQGSC
notes: His-tagged, pTrcHisB, expressed in delta-argC delta-proA E. coli BW25113 (DE3)
Purified protein [1]
  Km: 5.2 ± 1.9 mM
  kcat: 0.001 ± 0.0003 s⁻¹
  kcat/Km: 0.15 ± 0.055 M⁻¹ s⁻¹
Purified protein [2]
  Km: 0.14 ± 0.09 mM
  kcat: 0.74 ± 0.23 s⁻¹
  kcat/Km: 6100 ± 1700 M⁻¹ s⁻¹

B2: E. coli ProA (GP reductase) (Escherichia coli K-12) (protein)
chain: MLEQMGIAAKQASYKLAQLSSREKNRVLEKIADELEAQSEIILNANAQDVADARANGLSEAMLDRLALTPARLKGIADDVRQVCNLADPVGQVIDGGVLDSGLRLERRRVPLGVIGVIYEARPNVTVDVASLCLKTGNAVILRGGKETCRTNAATVAVIQDALKSCGLPAGAVQAIDNPDRALVSEMLRMDKYIDMLIPRGGAGLHKLCREQSTIPVITGGIGVCHIYVDESVEIAEALKVIVNAKTQRPSTCNTVETLLVNKNIADSFLPALSKQMAESGVTLHADAAALAQLQAGPAKVVAVKAEEYDDEFLSLDLNVKIVSDLDDAIAHIREHGTQHSDAILTRDMRNAQRFVNEVDSSAVYVNASTRFTDGGQFGLGAEVAVSTQKLHARGPMGLEALTTYKWIGIGDYTIRA
notes: as for B1
Purified protein [3]
  Km: 0.48 ± 0.03 mM
Purified protein [4]
  Km: 0.043 ± 0.003 mM
  kcat: 5.1 ± 0.2 s⁻¹
  kcat/Km: 120000 ± 10000 M⁻¹ s⁻¹

B3: Salmonella enterica ProA (Salmonella enterica subsp. enterica serovar Typhimurium str. LT2) (protein)
chain: MLEQMGIAAKAASYKLALLSSGEKNRVLEKIADELEAQMESILSANVQDVEQARANGLSEAMLDRLALTPARLKAIADDVRQVCNLADPVGQVIDGGLLDSGLRLERRRVPLGVVGVIYEARPNVTVDVASLCLKTGNAVILRGGKETYRTNAATVRVIQKALKACGLPEAAVQAIDNPDRSLVNEMLRMDKYIDMLIPRGGAGLHKLCREQSTIPVITGGIGVCHIFVDSSADIAPALKIIVNAKTQRPSTCNTVETLLVHQDIAERFLPALSKQMAESGVTLHGDETVMQVLHGPAKLVPLKPEELDNEFLSLDLNVVVVENMDGAIAHIREHGTQHSDAILTCDMHNAARFVNEVDSAAVYVNASTRFTDGGQFGLGAEVAVSTQKLHARGPMGLEALTTYKWIGFGDGTIRA
Purified protein [5]
  Km: 2.6 ± 0.1 mM
Purified protein [6]
  Km: 0.054 ± 0.012 mM
  kcat: 3.7 ± 0.5 s⁻¹
  kcat/Km: 69000 ± 7000 M⁻¹ s⁻¹

B4: Methanosarcina acetivorans ProA (Methanosarcina acetivorans C2A) (protein)
chain: MAEDIETKVVKAKKASIELSSVSEEVKNRALEAMAESLDRERKAILEANSKDLEYASELKKVGKLTQALVDRLKVTDSKIDGMIAGIMDVIKLKDPVGETLSTLELDNDLILYQISCPIGLIGVIFESRPDVVPQVMSLCLKSGNATIFKGGSEARESNRTIFEILVKAIESTEGMPKGAFQLMETREEIMSLLSLDAYVDLLIPRGSNEFVKFIQDNTKIPVLGHTSGICHIYVDEFADPDTAWKVCFDAKVQYPAVCNAIETLLVNRKIAEAFLPKMAEMYIKAGVELRCDKDSYILLAEKGLSPLSKATEEDWSLEYNDLILSIKLVDTIKEAIAHINTFGSHHTDGIITENASRRKEFIGLVDSSSVMVNASTRFADGYRYGKGAEVGISTNKIHSRGPVGMEGLLIYKYILMGKGQVVADYAGENAKPYTHRKLDLKFADVN
notes: as for B1
Purified protein [7]
  Km: 0.014 ± 0.004 mM
  kcat: 0.43 ± 0.03 s⁻¹
  kcat/Km: 25000 ± 11000 M⁻¹ s⁻¹

B5: Methanosarcina acetivorans ProA (Methanosarcina acetivorans C2A; E390A) (protein)
chain: B4 chain with E390A
notes: as for B1
Purified protein [7]
  Km: 0.056 ± 0.028 mM
  kcat: 0.0018 ± 0.0005 s⁻¹
  kcat/Km: 32 ± 15 M⁻¹ s⁻¹

B6: Bacillus subtilis ProA (Bacillus subtilis subsp. subtilis str. 168) (protein)
chain: MSEVSVKAKLAKEAAAEMIMKTTAEKDEALSLIANGLRKELDFLLAENAKDIVNGKENGLTPDIIDRLSLDEKRIRDIADAVELLIDLADPIGDSLETIEKENGLFIEKIRVPLGVVGMIYEARPNVTVDAATLCLKTGNAVVLRGSSSAIHSNKALVSVIYRALEQSALPIHAVQLIEDTSRETAKELFTLNDGLDVLIPRGGKKLIDLVVRESTVPVLETGAGNCHIFIDETAKPQMAEKVVVNAKTQRPSVCNAIESLLIHKAWARQHGKELLDQLENAGVEIRGDELVCELHPSSKQASKEDWETEFLAPVLSVKTVENVQEAVKHIQQYGTNHSEAILTENDKNAVYFQTAVDAAAVYHNASTRFTDGFEFGYGAEIGISTQKLHARGPMGLPALTSTKYIIKGTGQIRE
notes: as for B1
Purified protein [8]
  Km: 6.0 ± 1.5 mM
  kcat: 0.0014 ± 0.0003 s⁻¹
  kcat/Km: 0.24 ± 0.015 M⁻¹ s⁻¹
Purified protein [9]
  Km: 0.15 ± 0.02 mM
  kcat: 1.7 ± 0.2 s⁻¹
  kcat/Km: 11000 ± 1000 M⁻¹ s⁻¹

B7: Bacillus subtilis ProA (Bacillus subtilis subsp. subtilis str. 168; E381A) (protein)
chain: B6 chain with E381A
notes: as for B1
Purified protein [8]
  Km: 0.046 ± 0.019 mM
  kcat: 0.0028 ± 0.0004 s⁻¹
  kcat/Km: 61 ± 14 M⁻¹ s⁻¹

B8: Allivibrio fischeri ProA (Aliivibrio fischeri ES114) (protein)
chain: MNLTTMGQAAKAAAFDLAVAPTAQKNKALAIIADELEANKDAILAANEKDIKAAVEAGISEAMQDRLLLTEERLVGIANDVRNVINLNDPVGSEIDSKVLENGMSLSRRRVPIGVIGVIYEARPNVTIDIASLCLKTGNASILRGGKETFFSNMELVKVIQVALEKAGLPAASVQYIEKPDRELVSQLLTMDDYVDMIIPRGGAGLHKMCKENSSIPVIIGGFGISHAFVDESADLERALVVVDNSKAQRPSACNALDTLLVHEAVAPQFLALLANNMAGRVELVAEPKAYGLLKEFEGVSLREAQEGDFDTEWLSYTLGVKVVADVNEAAAHMQKHNASHSDTILTNNIESAEKFINTAGSAAVYVNASTRFTDGAQFGLGAEVAVSTQKLHARGPMGLEELTSYKWVGKADYLIRS
notes: as for B1
Purified protein [10]
  Km: 0.046 ± 0.011 mM
  kcat: 1.9 ± 0.2 s⁻¹
  kcat/Km: 42000 ± 6000 M⁻¹ s⁻¹

B9: Allivibrio fischeri ProA (Aliivibrio fischeri ES114; E384A) (protein)
chain: B8 chain with E384A
notes: as for B1
Purified protein [11]
  Km: 0.065 ± 0.023 mM

B10: Saccharophagus degradans ProA (Saccharophagus degradans 2-40) (protein)
chain: MTVQDYMLTLGKQARAASRQMASADTGKKNAALLAIADAINSARDTIAAENARDMEAGRANGLDAALLDRLELTPERIDGMIEGLNQVAALPDPCGEITDLKYRPSGIQLGKKRTPLGVVGIIYESRPNVTVDAASLCLKSGNAAILRGGSEAIHSNKAVAVCIAAGLKAAGLPETAVQVVETTDRAAVGELITMTKYVDVVVPRGGKSLIERISADARVSVIKHLDGICHVYVDKTANLDKAFNIVINSKTHRYGVCNAMETMLVDEAIAADFLPRAAKEFAARGVELRGCEKTVALLTASDIPVVAALEEDWDTEYLAPILSIKLVANMDEAIEHINNHGSHHTDALVSENYTLARKFLTEVDSSSVMINASTRFADGFEYGLGAEIGISTDKIHARGPVGLEGLTSQKWIVFGDGHIRN
notes: as for B1
Purified protein [12]
  Km: 0.82 ± 0.16 mM
  kcat: 3e-05 ± 3e-06 s⁻¹
  kcat/Km: 0.037 ± 0.004 M⁻¹ s⁻¹
Purified protein [13]
  Km: 0.085 ± 0.013 mM
  kcat: 0.4 ± 0.04 s⁻¹
  kcat/Km: 4700 ± 400 M⁻¹ s⁻¹

From article PMC4271523, “Differential Effects of a Mutation on the Normal and Promiscuous Activities of Orthologs: Implications for Natural and Directed Evolution” (Molecular Biology and Evolution, 2014)
